These substances were tested against IgG-CD4 fusion protein (human) (UniProt P01730) (assay: BLI).

Substance | Kd [nM]
recombinant gp120 of HIV-1 JR-FL (subtype B) (natural protein) | 6.4
recombinant gp120 of HIV-1 93MW965.26 (subtype C) (natural protein) | 112
recombinant consensus gp120 of HIV-1 CRF01_AE | 18.4
recombinant gp120 of HIV-1 92UG037.8 (subtype A) (natural protein) | 2.56
